Results published in the supplement of paper PMC6755084.

B1: F1*; the commonest letter at each place (parent)
chain: GAGACCGCAACTGAAAAGTTGTTATCACTTGTCGTAAGACACTTTGGATGGGTTGAAGTTCTGCACGTAGAAGCAAAAGGC

Variants of: B1
Assay: fraction ligated after 30 min (ligated reads / total reads); higher = more ligase activity
Details: with F1*sub RNA substrate (template-directed ligation), 42 °C
In short: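 Ligase ribozyme variants were made from oligo-pool templates by PCR amplification, T7 transcription and gel purification. After gel separation, ligated and unligated bands were reverse transcribed with barcoded primers and sequenced on a MiSeq, with core bases filtered at quality ≥20. The fraction ligated for each variant was the number of ligated reads divided by total reads.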
C33T A36G gave a fraction ligated of 0.854.
T32A G55C gave a fraction ligated of 0.562.
With T32A G55T the fraction ligated was 0.826.
With T32A G55A the fraction ligated was 0.817.
Work on T32C G38T yielded a fraction ligated of 0.768.
T32C G38A was tested, and the fraction ligated was 0.794.
T32C G38C gave a fraction ligated of 0.777.
C33G T45G showed a fraction ligated of 0.0204.
Work on C33G T45C yielded a fraction ligated of 0.273.
C33G T45A gave a fraction ligated of 0.689.
T32G T44G showed a fraction ligated of 0.821.
Variant T32G T44A has a fraction ligated of 0.807.
T32G T44C showed a fraction ligated of 0.795.
In the case of C33A A39C, the fraction ligated is reported as 0.792.
C33A A39G showed a fraction ligated of 0.84.
In the case of C33A A39T, the fraction ligated is reported as 0.852.
T32G G46C gave a fraction ligated of 0.716.
Variant T32G G46A has a fraction ligated of 0.782.
T32G G46T showed a fraction ligated of 0.647.
With T32C C42T the fraction ligated was 0.842.
Variant T32C C42A has a fraction ligated of 0.826.
In the case of T32C C42G, the fraction ligated is reported as 0.806.
With C33A T44A the fraction ligated was 0.805.
C33A T44C showed a fraction ligated of 0.84.
Variant C33A T44G has a fraction ligated of 0.821.
Variant T32A C33A has a fraction ligated of 0.811.
With T32A C33G the fraction ligated was 0.823.
T32A C33T was tested, and the fraction ligated was 0.847.
T32A T45C was tested, and the fraction ligated was 0.358.
Work on T32A T45A yielded a fraction ligated of 0.763.
With T32A T45G the fraction ligated was 0.0954.
In the case of C33A G34A, the fraction ligated is reported as 0.834.
For C33A G34C, the fraction ligated was 0.805.
For C33A G34T, the fraction ligated was 0.843.
In the case of C33A T43C, the fraction ligated is reported as 0.834.
Work on C33A T43A yielded a fraction ligated of 0.83.
Work on C33A T43G yielded a fraction ligated of 0.799.
T32A T43A was tested, and the fraction ligated was 0.831.
T32A T43C gave a fraction ligated of 0.812.
T32A T43G showed a fraction ligated of 0.789.
C33A A36C showed a fraction ligated of 0.844.
C33A A36T was tested, and the fraction ligated was 0.868.
C33A A36G gave a fraction ligated of 0.824.
In the case of T32A G34A, the fraction ligated is reported as 0.809.
T32A G34T showed a fraction ligated of 0.823.
Variant T32A G34C has a fraction ligated of 0.809.
C33G T49G was tested, and the fraction ligated was 0.706.
In the case of C33G T49C, the fraction ligated is reported as 0.312.
C33G T49A was tested, and the fraction ligated was 0.596.
T32C A39T gave a fraction ligated of 0.778.
With T32C A39C the fraction ligated was 0.772.
Variant T32C A39G has a fraction ligated of 0.852.
Work on G31T T49G yielded a fraction ligated of 0.19.
G31T T49C showed a fraction ligated of 0.0332.
Work on C33G C40G yielded a fraction ligated of 0.826.
With C33G C40T the fraction ligated was 0.825.
Work on C33G C40A yielded a fraction ligated of 0.819.
T32A G46T was tested, and the fraction ligated was 0.787.
T32A G46C showed a fraction ligated of 0.778.
Variant T32A G46A has a fraction ligated of 0.81.
Variant T32C A41T has a fraction ligated of 0.776.
T32C A41C showed a fraction ligated of 0.755.
T32C A41G gave a fraction ligated of 0.709.
With T32G T49C the fraction ligated was 0.246.
For T32G T49A, the fraction ligated was 0.56.
T32G T49G was tested, and the fraction ligated was 0.669.
C33A C40A was tested, and the fraction ligated was 0.853.
C33A C40G showed a fraction ligated of 0.849.
C33A C40T showed a fraction ligated of 0.849.
In the case of T32A T35C, the fraction ligated is reported as 0.829.
T32A T35G gave a fraction ligated of 0.812.
Work on T32A T35A yielded a fraction ligated of 0.855.
Variant T32G A37T has a fraction ligated of 0.825.
T32G A37G was tested, and the fraction ligated was 0.842.
T32G A37C gave a fraction ligated of 0.815.
C33T A56G gave a fraction ligated of 0.797.
Variant C33T A56C has a fraction ligated of 0.795.
C33G T35A showed a fraction ligated of 0.872.
For C33G T35G, the fraction ligated was 0.843.
Variant C33G T35C has a fraction ligated of 0.825.
C33G G46A gave a fraction ligated of 0.811.
With C33G G46T the fraction ligated was 0.811.
C33G G46C gave a fraction ligated of 0.779.
C33G G47A was tested, and the fraction ligated was 0.791.
C33G G47C was tested, and the fraction ligated was 0.108.
C33G G47T showed a fraction ligated of 0.409.
C33G A41C showed a fraction ligated of 0.822.
Work on C33G A41T yielded a fraction ligated of 0.789.
C33G A41G showed a fraction ligated of 0.791.
T32C A57G gave a fraction ligated of 0.781.
With T32C A57C the fraction ligated was 0.76.
Work on T32C A57T yielded a fraction ligated of 0.775.
Variant C33T A37C has a fraction ligated of 0.868.
Variant C33T A37T has a fraction ligated of 0.854.
For C33T A37G, the fraction ligated was 0.878.
In the case of T32A A36C, the fraction ligated is reported as 0.815.
T32A A36G showed a fraction ligated of 0.794.
T32A A36T was tested, and the fraction ligated was 0.852.
T32A A57C was tested, and the fraction ligated was 0.821.
With T32A A57G the fraction ligated was 0.859.
With T32A A57T the fraction ligated was 0.821.
T32C T35A was tested, and the fraction ligated was 0.811.
T32C T35G was tested, and the fraction ligated was 0.808.
Work on T32C T35C yielded a fraction ligated of 0.829.
T32C T44G gave a fraction ligated of 0.793.
Work on T32C T44A yielded a fraction ligated of 0.751.
T32C T44C showed a fraction ligated of 0.756.
C33G T43C was tested, and the fraction ligated was 0.812.
C33G T43G gave a fraction ligated of 0.807.
For C33G T43A, the fraction ligated was 0.814.
Work on C33T A48T yielded a fraction ligated of 0.452.
With C33T A48G the fraction ligated was 0.814.
For C33T A48C, the fraction ligated was 0.789.
Variant T32A C40T has a fraction ligated of 0.806.
T32A C40A was tested, and the fraction ligated was 0.834.
In the case of T32A C40G, the fraction ligated is reported as 0.834.
With C33G G38C the fraction ligated was 0.829.
With C33G G38A the fraction ligated was 0.847.
C33G G38T was tested, and the fraction ligated was 0.837.
With C33A A37G the fraction ligated was 0.872.
C33A A37C gave a fraction ligated of 0.859.
In the case of C33A A37T, the fraction ligated is reported as 0.849.
Work on T32C T49C yielded a fraction ligated of 0.193.
Variant T32C T49A has a fraction ligated of 0.512.
With T32C T49G the fraction ligated was 0.647.
With T32G A36C the fraction ligated was 0.798.
T32G A36T showed a fraction ligated of 0.823.
With T32G A36G the fraction ligated was 0.813.
Work on C33G A57C yielded a fraction ligated of 0.847.
C33G A57T gave a fraction ligated of 0.836.
C33G A57G showed a fraction ligated of 0.881.
T32A G38T was tested, and the fraction ligated was 0.825.
In the case of T32A G38A, the fraction ligated is reported as 0.861.
Work on T32A G38C yielded a fraction ligated of 0.82.
T32G G34C was tested, and the fraction ligated was 0.726.
Work on T32G G34A yielded a fraction ligated of 0.83.
For T32G G34T, the fraction ligated was 0.793.
C33G A37C gave a fraction ligated of 0.824.
C33G A37G showed a fraction ligated of 0.847.
In the case of C33G A37T, the fraction ligated is reported as 0.853.
In the case of T32G G47C, the fraction ligated is reported as 0.0306.
In the case of T32G G47T, the fraction ligated is reported as 0.0926.
T32G G47A showed a fraction ligated of 0.556.
For C33A G38A, the fraction ligated was 0.857.
C33A G38C gave a fraction ligated of 0.832.
Work on C33A G38T yielded a fraction ligated of 0.86.
With T32C A36T the fraction ligated was 0.803.
T32C A36C gave a fraction ligated of 0.795.
T32C A36G showed a fraction ligated of 0.786.
C33A G46T was tested, and the fraction ligated was 0.803.
For C33A G46A, the fraction ligated was 0.84.
C33A G46C showed a fraction ligated of 0.797.
C33G C42T was tested, and the fraction ligated was 0.833.
Variant C33G C42G has a fraction ligated of 0.853.
With C33G C42A the fraction ligated was 0.826.
C33T A39T gave a fraction ligated of 0.831.
C33T A39G was tested, and the fraction ligated was 0.833.
C33T A39C was tested, and the fraction ligated was 0.804.
T32C C33G gave a fraction ligated of 0.797.
With T32C C33T the fraction ligated was 0.849.
Variant T32C C33A has a fraction ligated of 0.863.
In the case of C33A G55A, the fraction ligated is reported as 0.84.
C33A G55T showed a fraction ligated of 0.809.
In the case of C33A G55C, the fraction ligated is reported as 0.77.
With C33T A41G the fraction ligated was 0.8.
With C33T A41C the fraction ligated was 0.789.
C33T A41T showed a fraction ligated of 0.808.
